Assay results as given in US20240270857A1 (CHIA TAI TIANQING PHARMACEUTICAL GROUP, published 2024).

Key:
[1] = molecular target: T1, IL-36R naturally expressed on OVCAR8 cells and on normal human epidermal keratinocytes (NHK cells) (human, UniProt Q9HB29 20-575); test: cell-based or functional assay
T1 sequence (looked up): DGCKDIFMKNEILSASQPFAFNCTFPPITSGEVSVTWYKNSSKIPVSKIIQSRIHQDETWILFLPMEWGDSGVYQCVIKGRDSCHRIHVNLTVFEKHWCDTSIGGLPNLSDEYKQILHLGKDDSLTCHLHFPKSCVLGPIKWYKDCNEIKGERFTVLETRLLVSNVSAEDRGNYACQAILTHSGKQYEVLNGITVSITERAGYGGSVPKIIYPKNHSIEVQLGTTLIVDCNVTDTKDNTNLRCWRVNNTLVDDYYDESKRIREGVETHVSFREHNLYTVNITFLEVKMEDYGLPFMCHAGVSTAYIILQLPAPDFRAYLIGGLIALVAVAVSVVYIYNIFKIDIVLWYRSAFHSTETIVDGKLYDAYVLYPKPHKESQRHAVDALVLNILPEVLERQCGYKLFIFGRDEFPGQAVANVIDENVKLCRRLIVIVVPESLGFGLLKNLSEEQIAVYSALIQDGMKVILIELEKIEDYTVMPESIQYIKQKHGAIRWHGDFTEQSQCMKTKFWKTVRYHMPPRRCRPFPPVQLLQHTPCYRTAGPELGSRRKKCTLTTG

[2] = molecular target: T1, IL-36R naturally expressed on OVCAR8 …; test: cell-based or functional assay; remark: listed apart in the source
[3] = molecular target: T2, Human IL-1Rrp2/IL-1R6 protein, His Tag (ACROBiosystems, IL2-H52H6) (human, UniProt Q9HB29 20-335); test: BLI (ForteBio Octet), antibody on ProA sensor, 1:1 model
T2 construct: Bought protein; the soluble protein is likely only the extracellular part; also called hIL-36R; human IL36R antigen; not shown: His tag
T2 sequence: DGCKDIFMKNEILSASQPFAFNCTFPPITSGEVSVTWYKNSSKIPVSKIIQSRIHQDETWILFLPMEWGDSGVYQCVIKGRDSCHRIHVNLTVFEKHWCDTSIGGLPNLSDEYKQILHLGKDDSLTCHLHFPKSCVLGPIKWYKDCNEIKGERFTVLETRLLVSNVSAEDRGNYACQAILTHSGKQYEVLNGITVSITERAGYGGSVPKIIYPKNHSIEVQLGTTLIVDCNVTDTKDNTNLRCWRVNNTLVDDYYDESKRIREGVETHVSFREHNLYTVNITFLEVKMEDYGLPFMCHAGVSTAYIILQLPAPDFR
Description: The affinity of anti-IL-36R antibodies to CynoIL36R-ECD mFc and human IL-1Rrp2/IL-IR6 protein, His Tag (ACROBiosystems, IL2-H52H6) was measured by a ForteBio molecular interaction instrument. […] And then the biosensor was used to bind CynoIL36R-ECD mFc or human IL-1Rrp2/IL-1R6 protein, His Tag which was diluted by a gradient (the initial concentration was 200 nM, 2-fold gradient dilution), the response signals were detected in real time using a Fortebio molecular interaction instrument (SARTORIUS, octet red 96e), and association and dissociation curves were obtained. After the completion of dissociation in each cycle, the biosensor was regenerated for the next capture; the procedure was repeated until the affinity of the different anti-IL-36R antibodies for IL-36R was determined. The resulting data were analyzed by Fortebio Data Analysis 11.0 software in a 1:1 (Langmuir) binding model to determine kₐ (kₒₙ) and kd (koff) values, and the dissociation constant KD was calculated by KD=kd/kₐ. The detection method essentially followed the manufacturer's recommendations, and more information could be found at www.fortebio.com.

[4] = molecular target: T3, human IL-36R overexpressed on 293T-hIL36R-NFκB cells (human, UniProt Q9HB29 20-575); test: cell-based or functional assay
T3 sequence: T1 sequence (looked up)

[5] = molecular target: T1, IL-36R naturally expressed on OVCAR8 …; test: cell-based or functional assay; remark: listed apart in the source
[6] = molecular target: T4, cynomolgus IL-36R overexpressed on 293T-CynoIL36R-NFκB cells (cynomolgus monkey); test: FACS on 293T-CynoIL36R-NFκB cells, ratio of MFI to background MFI
T4 construct: Entry includes the signal peptide; also called monkey IL-36R
T4 chain: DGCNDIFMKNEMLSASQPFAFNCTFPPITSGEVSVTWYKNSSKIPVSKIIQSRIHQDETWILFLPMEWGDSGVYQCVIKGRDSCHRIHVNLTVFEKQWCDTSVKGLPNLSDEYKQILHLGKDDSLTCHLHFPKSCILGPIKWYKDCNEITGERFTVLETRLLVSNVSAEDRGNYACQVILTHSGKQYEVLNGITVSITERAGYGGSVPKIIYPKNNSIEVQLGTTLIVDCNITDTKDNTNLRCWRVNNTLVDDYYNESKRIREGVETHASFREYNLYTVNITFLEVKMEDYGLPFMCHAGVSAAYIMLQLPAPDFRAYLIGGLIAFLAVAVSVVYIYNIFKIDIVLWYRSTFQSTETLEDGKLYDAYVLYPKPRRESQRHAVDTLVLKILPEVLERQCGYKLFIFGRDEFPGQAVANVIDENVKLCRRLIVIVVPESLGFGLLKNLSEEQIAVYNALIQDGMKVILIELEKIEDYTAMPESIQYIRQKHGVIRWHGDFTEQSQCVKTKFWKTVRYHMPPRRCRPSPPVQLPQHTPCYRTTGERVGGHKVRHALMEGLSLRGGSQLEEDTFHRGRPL
Description: After the cells was washed with PBS, the cells were resuspended with 100 μL of PBS and then the fluorescence signal was detected using a flow cytometer (BD, Accuri C6). […] The ratio was the ratio of mean fluorescence intensity (MFI) of the experimental group/the background MFI, and the resulting data were analyzed using GraphPad Prism.

[7] = molecular target: T1, IL-36R naturally expressed on OVCAR8 …; test: cell-based or functional assay; remark: listed apart in the source
[8] = molecular target: T3, human IL-36R overexpressed on …; test: cell-based or functional assay; remark: listed apart in the source
[9] = molecular target: T1, IL-36R naturally expressed on OVCAR8 …; test: cell-based or functional assay; remark: listed apart in the source
[10] = molecular target: T1, IL-36R naturally expressed on OVCAR8 …; test: cell-based or functional assay; remark: listed apart in the source
[11] = molecular target: T3, human IL-36R overexpressed on …; test: cell-based or functional assay; remark: listed apart in the source
[12] = molecular target: T5, hIL36R-ECD hFc recombinant protein (human); test: ELISA of hybridoma culture supernatant on hIL-36R
T5 construct: also called hIL-36R extracellular region with human antibody heavy chain Fc
T5 sequence (chain, as listed by the source limits assumed): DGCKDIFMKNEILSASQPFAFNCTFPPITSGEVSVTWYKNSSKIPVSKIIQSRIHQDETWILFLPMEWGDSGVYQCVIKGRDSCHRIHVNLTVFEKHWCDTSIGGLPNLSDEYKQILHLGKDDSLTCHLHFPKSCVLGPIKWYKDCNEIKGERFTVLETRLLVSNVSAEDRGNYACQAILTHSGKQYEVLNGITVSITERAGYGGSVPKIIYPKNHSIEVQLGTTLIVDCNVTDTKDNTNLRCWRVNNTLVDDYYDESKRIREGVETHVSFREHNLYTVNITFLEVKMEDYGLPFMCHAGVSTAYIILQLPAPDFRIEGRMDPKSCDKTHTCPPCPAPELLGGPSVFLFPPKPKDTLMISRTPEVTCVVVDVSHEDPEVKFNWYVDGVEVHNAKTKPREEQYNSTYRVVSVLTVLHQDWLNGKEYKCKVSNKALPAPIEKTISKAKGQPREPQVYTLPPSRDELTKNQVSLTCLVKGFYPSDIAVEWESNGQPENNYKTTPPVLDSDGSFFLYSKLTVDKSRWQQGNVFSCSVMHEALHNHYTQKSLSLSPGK

B1: chimeric 58A8D1 antibody (antibody, human IgG4 S228P, kappa, V domains shown)
VH: EVQLQQLGSVLVRPGISVKLSCKASGYSFTSSWMHWTKQRPGQGLEWIGEIHPNSGNTNYNEKFKGKATLTVDTSSRTAYVDLSSLTSEDSAVYYCARSPYGYGGSMDYWGQGTSVTVSS
VL: DIQMTQTTSSLSASLGDRVTISCRASQDIHNYLNWYQQKPDGTVKLLIYYTSRLYSGVPSRFSGSGSGTDYSLTISNLEQEDFATYFCQQGNTLPVMFGSGTKLELKR
notes: Mouse variable regions on human IgG4 / kappa; also called xi58A8D1
IC50; IL-8 production of OVCAR8 cells stimulated with hIL36β, inhibition rate % [1]: 415 pM
IC50; IL-8 production of NHK cells stimulated with hIL36γ, inhibition rate % [2]: 13.6 pM
Kd [3]: 254 pM
koff [3]: 9.15e-06 s⁻¹
kon [3]: 36000 M⁻¹ s⁻¹
IC50; NFκB-luciferase reporter in 293T-hIL36R-NFκB cells stimulated with hIL36γ, inhibition rate % [4]: ~40800 pM
IC50; IL-8 production of NHK cells stimulated with hIL36α, inhibition rate % [5]: 69.3 pM
EC50 [6]: 20800 pM
IC50; IL-8 production of OVCAR8 cells stimulated with hIL36γ, inhibition rate % [7]: 213 pM
IC50; NFκB-luciferase reporter in 293T-hIL36R-NFκB cells stimulated with hIL36α, inhibition rate % [8]: 16400 pM
IC50; IL-8 production of NHK cells stimulated with hIL36β, inhibition rate % [9]: 79.1 pM
IC50; IL-8 production of OVCAR8 cells stimulated with hIL36α, inhibition rate % [10]: 253 pM
IC50; NFκB-luciferase reporter in 293T-hIL36R-NFκB cells stimulated with hIL36β, inhibition rate % [11]: 9770 pM

B2: mouse antibody 58A8D1 (hybridoma clone 58A8D1) (antibody, V domains shown)
VH: B1 VH
VL: DIQMTQTTSSLSASLGDRVTISCRASQDIHNYLNWYQQKPDGTVKLLIYYTSRLYSGVPSRFSGSGSGTDYSLTISNLEQEDFATYFCQQGNTLPVMFGSGTKLELK
notes: Mouse hybridoma antibody tested as culture supernatant
binding result [12]: binds

B3: mouse antibody 72C1 (hybridoma clone 72C1) (antibody, V domains shown)
VH: EVQLQQSGPSLVKPSQTLSLTCSVTGASITSGYWNWIRNFPGNKLEYMGYISYSGYTYYNPSLKSRISITRDTSKNQYYLQLISVTTEDTATYYCATGGYDYVEDALYYWGQGTSVTVSS
VL: EILLTQSPAIMSATLGEKVTMSCRASSNVRYMYWYQLKSGASPKLWIYLTSNLASGVPARFSGSGSGTSYSLTISSVEAEDAATYFCQQFTTSPYTFGGGTKLEIK
notes: as for B2
binding result [12]: binds

B4: mouse antibody 74B4D6 (hybridoma clone 74B4D6) (antibody, V domains shown)
VH: EVQLQQPGAELGKPGASVKMACKASGYTFTNYWIHWVKQRPGQGLEWIGTIDPSENYTNYNQKFKGKATLTVDTSSSTAYMQLSSLTSEDKAVYFCTGSSFSYWGQGTLVTVSA
VL: QNVLTQSPAIMSVSPGEKVTMTCSASSSVSFIHWFQQKPGTSPKLWIYTTSNLASGVPARFSGSGSGTSYSLTISRMEAEDAATYYCQQRSSYPLTFGAGTKLELK
notes: as for B2
binding result [12]: binds

B5: mouse antibody 84C4 (hybridoma clone 84C4) (antibody, V domains shown)
VH: EVQLQQLGAELVRPGASVMLSCKVSGYFFTSYWMNWVNQRPGQGLEWIGMIHPYDSETRLNQKFKGKATLTVDKSASTAYLQLSSPTSEEYAVYYCASSTTAFAYWGQGTLVTVSA
VL: DILMTQSPSSLSASLGERVSLTCRASQDIGNALNWLQQAPDGTIKRLIYATSSLDPGVPKRFSGSRSGSDYSLTISSLASEDFVYYYCLQYASSPYTFGGGTKLEIK
notes: as for B2
binding result [12]: binds

B6: chimeric 6G10 antibody (antibody, human IgG4 S228P, kappa, V domains shown)
VH: EVMLVESGGGLVKPGGSLKLSCAASGITFSRFAMSWIRQTPEKRLEWVATISSGDMYTYYPDSVKGRFTISRDNANNTLYLQMRSLRSEDTAMYYCAIMITTGEHAYWGQGTLVTVSA
VL: EIKMTQSPSSLSASLGDTITITCRASQDISVWLTWYQQKPGNIPKLLIYKASNLHTGVPPRFSGSGSGTDFTFTISSLQPEDITTYYCLQSQSYPWTFGGGTKLEIKR
notes: Mouse variable regions on human IgG4 / kappa; also called xi6G10
IC50; IL-8 production of OVCAR8 cells stimulated with hIL36β, inhibition rate % [1]: 182 pM
IC50; IL-8 production of NHK cells stimulated with hIL36γ, inhibition rate % [2]: 130 pM
Kd [3]: 881 pM
koff [3]: 5.01e-05 s⁻¹
kon [3]: 56900 M⁻¹ s⁻¹
IC50; NFκB-luciferase reporter in 293T-hIL36R-NFκB cells stimulated with hIL36γ, inhibition rate % [4]: ~40200 pM
IC50; IL-8 production of NHK cells stimulated with hIL36α, inhibition rate % [5]: 555 pM
EC50 [6]: 3490 pM
IC50; IL-8 production of OVCAR8 cells stimulated with hIL36γ, inhibition rate % [7]: 72.7 pM
IC50; NFκB-luciferase reporter in 293T-hIL36R-NFκB cells stimulated with hIL36α, inhibition rate % [8]: 2770 pM
IC50; IL-8 production of NHK cells stimulated with hIL36β, inhibition rate % [9]: 1270 pM
IC50; IL-8 production of OVCAR8 cells stimulated with hIL36α, inhibition rate % [10]: 70.4 pM
IC50; NFκB-luciferase reporter in 293T-hIL36R-NFκB cells stimulated with hIL36β, inhibition rate % [11]: 1800 pM

B7: mouse antibody 6G10 (hybridoma clone 6G10) (antibody, V domains shown)
VH: B6 VH
VL: EIKMTQSPSSLSASLGDTITITCRASQDISVWLTWYQQKPGNIPKLLIYKASNLHTGVPPRFSGSGSGTDFTFTISSLQPEDITTYYCLQSQSYPWTFGGGTKLEIK
notes: as for B2
binding result [12]: binds
